The DeepSol protein solubility set

Assay: soluble on expression in E. coli; label from the status in PepcDB or PDB records

Sequence	soluble on expression in E. coli
MSFVHQKCRNIDTVYLGSNIHRLNVPDNLVKWSQEWSGYNPPAHTDPKVDGAVWADPEIDEKTFQPSWNAIDGKINRVSYVCQYSFDPVTLRPLNPIGRTGLSGRGLLGRWGPNHAADPIVSRTNDNGDLEFVAVQRHDNGEWAIPGGMVDAGEHVSQTLRREFAEEAMHGIVDSENLDELWNNGKELYRGYVDDPRNTDNAWMETVVFNFHDSKGLLKNVALQAGDDAKALRWIAVNSNEPLYASHSHFIDLLKESHSH	not soluble
GSHMTYPKYLLSPETIEALRKPTFDVWLWEPNEMLSCLEHMYHDLGLVRDFSINPVTLRRWLFCVHDNYRNNPFHNFRHCFCVAQMMYSMVWLCSLQEKFSQTDILILMTAAICHDLDHPGYNNTYQINARTELAVRYNDISPLENHHCAVAFQILAEPECNIFSNIPPDGFKQIRQGMITLILATDMARHAEIMDSFKEKMENFDYSNEEHMTLLKMILIKCCDISNEVRPMEVAEPWVDCLLEEYFMQSDREKSEGLPVAPFMDRDKVTKATAQIGFIKFVLIPMFETVTKLFPMVEEIMLQPLWESRDRYEELKRIDDAMKELQKK	soluble
MAHHHHHHMRRTVVQRVAPWVPPPRHDIKVTMPPPPGGEVGGRFGVSQGYSDRLARTPYWKRMALSTYKLRMMENATRYPMSEHRPGEYDIRYLPTPYPCTIRNRPLLEVGEPRQIPSIRIPVIFLVNLFDEAKGCWFGRRYETVYVERQFMREELMPQRYAIYATPEAYKLLGLPVVNHHTHEEIPKTPREYEKLLERQRYDEERWKYTIEYLFRKYEDGPPELLDRPEDGWDGSEEIALSSVAGAGRDGVVSQRKGPVKQRKARKIKLF	not soluble
MFSGFSSFGGGNGFVNMPQTFEEFFRCYPIAMMNDRIRKDDANFGGKIFLPPSALSKLSMLNIRYPMLFKLTANETGRVTHGGVLEFIAEEGRVYLPQWMMETLGIQPGSLLQISSTDVPLGQFVKLEPQSVDFLDISDPKAVLENVLRNFSTLTVDDVIEISYNGKTFKIKILEVKPESSSKSICVIETDLVTDFAPPVGYVEPDYKALKAQQDKEKKNSFGKGQVLDPSVLGQGSMSTRIDYAGIANSSRNKLSKFVGQGQNISGKAPKAEPKQDIKDMKITFDGEPAKLDLPEGQLFFGFPMVLPKEDEESAAGSKSSEQNFQGQGISLRKSNKRKTKSDHDSSKSKAPKSPEVIEID	soluble
MSLRPARKTVGVALSGGGANGIAQIGVLKALDEERIPVDYIAGTSMGAIIGGLYSCGYSPADLEKIAETLPWQSVLSIREENPRARIFLEQQRIRDRSTIAIRFDKLKLMIPKSLSSAQALTGTLDLLILNGVYHSWQDFNSLPVQFRAVSTDLISGKRITLTSGSLSEAMRASSTIPVLFEPIERDGYRLVDGGLVANLPVDELDVVNASYKIAVDTHGSMYSKSGDLDLPWKAADQAITILTGLQYPAQLEKADEGHHHHHH	soluble
MKILLRNALITNEGKTFPGSVMIDGAFISRIIEGELPADDNLSADEVIECSGLRLFPGCIDDQVHFREPGLTHKATIASESRAAVAGGVTSFMDMPNTNPPTTMWERLLEKRQIGADTAWANYGFFFGGTNDNIDEIKRVDKHLVPGLKLFLGSSTGNMLVDNKETLEKIFGECDLLIATHCEKEEIIRANKEHYKAKYGNDLDIHFHPLIRSEEACYRSSAEAVELAERMNARLHILHLSTEKELSLFRNDIPTAQKRITSEVCVHHLWFSDTDYGRLGNRIKWNPAIKKESDREALRAAVRNGRIDIIATDHAPHLLREKEGSCLQAASGGPLVQHSLLALLELCNQ	not soluble
GHMDQSDFSPYIEIDLPSESRIQSLHKSGLAAQEWVACEKVHGTNFGIYLINQGDHEVVRFAKRSGIMDPNENFFGYHILIDEFTAQIRILNDLLKQKYGLSRVGRLVLNGELFGAKYKHPLVPKSEKWCTLPNGKKFPIAGVQIQREPFPQYSPELHFFAFDIKYSVSGAEEDFVLLGYDEFVEFSSKVPNLLYARALVRGTLDECLAFDVENFMTPLPALLGLGNYPLEGNLAEGVVIRHVRRGDPAVEKHNVSTIIKLRCSSFMELKHPGKQKE	soluble
MYNVIGVRFKKAGKIYYFDPNGFHIEHDSCVIVETVRGVEYGQVVIANKQVDEHDVVLPLRKVIRVADDRDLLIVEENKQEALSAFDICQKKVIEHGLDMKLVDVEFTFDRNKVIFYFTADGRVDFRELVKDLASIFKTRIELRQIGVRDEAKMLGGIGPCGRMLCCSTFLGDFEPVSIKMAKDQNLSLNPTKISGLCGRLMCCLKYENDEYETAKEQLPDIGEMITTANGPAKVVGLNILERVLQVELINREKVIEYTWEELLEEGVVSAQTTDLEHHHHHH	not soluble
GPGYQDPKGRLYGTIGIQKRFYVSIDKIPEHVINAFVATEDRNFWHHFGIDPVAIVRAAIVNYRAGRIVQGGSTITQQLAKNLFLTRERTLERKIKEALLAIKIERTFDKKKIMELYLNQIYLGSGAYGVEAAAQVYFGKHVWELSLDEAALLAALPKAPAKYNPFYHPERALQRRNLVLKRMLEEGYITPEQYEEAVNK	soluble
MAKMRISPELKKLIEKYRSVKDTEGMSPAKVYKLVGENENLYLKMTDSRYKGTTYDVEREKDMMLWLEGKLPVPKVLHFERHDGWSNLLMSEADGVLCSEEYEDEQSPEKIIELYAECIRLFHSIDISDCPYTNSLDSRLAELDYLLNNDLADVDSENWEEDTPFKDPRELYDFLKTEKPEEELVFSHGDLGDSNIFVKDGKVSGFIDLGRSGRADKWYDIAFCVRSIREDIGEEQYVELFFDLLGIKPDWEKIKYYILLDELF	soluble
MVAKGRIIRVTGPLVVADGMKGAKMYEVVRVGELGLIGEIIRLEGDKAVIQVYEETAGVRPGEPVVGTGASLSVELGPGLLTSIYDGIQRPLEVIREKTGDFIARGVTAPALPRDKKWHFIPKAKVGDKVVGGDIIGEVPETSIIVHKIMVPPGIEGEIVEIAEEGDYTIEEVIAKVKTPSGEIKELKMYQRWPVRVKRPYKEKLPPEVPLITGQRVIDTFFPQAKGGTAAIPGPFGSGKTVTQHQLAKWSDAQVVIYIGCGERGNEMTDVLEEFPKLKDPKTGKPLMERTVLIANTSNMPVAAREASIYTGITIAEYFRDMGYDVALMADSTSRWAEALREISGRLEEMPGEEGYPAYLASKLAEFYERAGRVVTLGSDYRVGSVSVIGAVSPPGGDFSEPVVQNTLRVVKVFWALDADLARRRHFPAINWLTSYSLYVDAVKDWWHKNIDPEWKAMRDKAMALLQKESELQEIVRIVGPDALPERERAILLVARMLREDYLQQDAFDEVDTYCPPEKQVTMMRVLLNFYDKTMEAINRGVPLEEIAKLPVREEIGRMKFERDVSKIRSLIDKTNEQFEELFKKYGA	soluble
MAHHHHHHMADTHFFAEANVLDDPRETTNAYKEIKYDLLRIERSINTEVRKRIEANKNIQQLIEHTANDMINKVLNKITTKIENISFELDKIIKKCDELEKMVGQIRLTLPTKIQTEMMGLKREVSDFFILLNKYANNRKKRNNVLFSKMENMNAYVSNKIHSEVSFTEDDFLFFRRESAKLLASDSDDEQGFRDAFLQEVEEIRDALALTVKAREQSDDDIIQVGAVRCGGAVQRCDVMRWDETRWAYFR	not soluble
HRPEGLEQLEAQTNFTKRELQVLYRGFKNECPSGVVNEETFKQIYAQFFPHGDASTYAHYLFNAFDTTQTGSVKFEDFVTALSILLRGTVHEKLRWTFNLYDINKDGYINKEEMMDIVKAIYDMMGKYTYPVLKEDTPRQHVDVFFQKMDKNKDGIVTLDEFLESCQEDDNIMRSLQLFQNVM	soluble
VRKRMVIGLSTGSDDDDVEVIGGVDPRLIAVQENDSDESSLTDLVEQPAKVMRIGTMIKQLLEEVRAAPLDEASRNRLRDIHATSIRELEDGLAPELREELDRLTLPFNEDAVPSDAELRIAQAQLVGWLEGLFHGIQTALFAQQMAARAQLQQMRQGALPPGVGKSGQHGHGTGQYL	soluble
MGSDKIHHHHHHMRMAQVVLENVTKVYENKVVAVKNANLVVEDKEFVVLLGPSGCGKTTTLRMIAGLEEITDGKIYIDGKVVNDVEPKDRDIAMVFQNYALYPHMTVYENMAFGLKLRKYPKDEIDRRVREAAKILGIENLLDRKPRQLSGGQRQRVAVGRAIVRNPKVFLFDEPLSNLDAKLRVQMRSELKKLHHRLQATIIYVTHDQVEAMTMADKIVVMKDGEIQQIGTPHEIYNSPANVFVAGFIGSPPMNFVNARVVRGEGGLWIQASGFKVKVPKEFEDKLANYIDKEIIFGIRPEDIYDKLFALAPSPENTITGVVDVVEPLGSETILHVKVGDDLIVASVNPRTQAKEEQKIDLVLDMTRMHAFDKETEKAII	not soluble
GLFDKLKSLVSDDKKDTGTIEIIAPLSGEIVNIEDVPDVVFAEKIVGDGIAIKPTGNKMVAPVDGTIGKIFETNHAFSIESDSGVELFVHFGIDTVELKGEGFKRIAEEGQRVKVGDTVIEFDLPLLEEKAKSTLTPVVISNMDEIKELIKLSGSVTVGETPVIRIKK	soluble
MSLDLRLEELAILGVKLPHDFSPEVQGPLFSSQGLNNISDIAHLSNNENLSYLMTATIENNKVKLDHFVQFLPMIMKFGNSEQRFQLQPKKDTNAPKPTTNKSRGYAKPKRGFGFVDLDDAPSSQPEPSDAEITRNNFDLEQTYWSKNFVNITRVGSRTILEPAIGASLTTYNSGQCYILRLPRKLLISTNTEWPDFISRKIELDGKPLPIPSDNLTEISSREDIISCSYVNDKIDSNWGAVVSLSKSSSENLKVVGIEKQSMVLRESTPMNEGHHHHHH	soluble
MGSDKIHHHHHHMMLGPEGGEGYVVKLRGLPWSCSIEDVQNFLSDCTIHDGVAGVHFIYTREGRQSGEAFVELESEDDVKLALKKDRESMGHRYIEVFKSHRTEMDWVLKHSGPNSADSANDGFVRLRGLPFGCTKEEIVQFFSGLEIVPNGITLPVDPEGKITGEAFVQFASQELAEKALGKHKERIGHRYIEVFKSSQEEVRSYSDPPLKFMSVQRPGPYDRPGTARRYIGIVKQAGLDRMRSGAYSAGYGGYEEYSGLSDGYGFTTDLFGRDLSYCLSGMYDHRYGDSEFTVQSTTGHCVHMRGLPYKATENDIYNFFSPLNPVRVHIEIGPDGRVTGEADVEFATHEEAVAAMSKDRANMQHRYIELFLNSTTGASNGAYSSQVMQGMGVSAAQATYSGLESQSVSGCYGAGYSGQNSMGGYD	not soluble
AFRGLRKGQFFDENALMLIATIAAFFVGAYEESVSIMVFYSAGEFLQKLAVSRSKKSLKALVDVAPNLAYLKKGDELVSVAPEDLRVNDIVVVKVGEKVPVDGVVVKGESLLDERALSGESMPVNVSENSKVLGGSLNLKAVLEIQVEKMYKDSSIAKVVDLVQ	not soluble
MGSDKIHHHHHHMKKEDKTPSRLIQLGKIYRLIEQFEEISRIELSKLSGLAPASITSLSRSLIEKRLIMEKTSRNTDNRGRPAIALCVSPFYWQALCATLVEDRFEIILSELDGVIIEQSVFPLQKDDLECLDKFLVKSVKQFLAETHSLARPITFSVTVGGELDKNGYLIKLGCTKFAHLDLKSLFTPYFNIPILIAEYFKTWLLAESTLGNVINCDDVLFLQLDDEINLSVLSEGELLFSREQDKININHLIVPRLNELQALINHDLPEVERYQVQHQVTHRAIAQFIDALYPNRVFSNNSEKMNFLCEQIQLKDKNALRIIEHITDCLAYILMNLVHIFSARRVMLNSSLLQLKDFLLEQLNRKLKSYLVDNISTVSVIAGKYEWNSPIVAASAIKQGIYDGSLLTSLVKQEENIINF	not soluble
